Biological target: the molecule itself
Assay: sedimentation velocity AUC, 150 mM NaCl, pH 6.0; self-association

B1: mouse galactocerebrosidase (mGalC), recombinant (enzyme)
chain: YVLDDSDGLGREFDGIGAVSGGGATSRLLVNYPEPYRSEILDYLFKPNFGASLHILKVEIGGDGQTTDGTEPSHMHYELDENYFRGYEWWLMKEAKKRNPDIILMGLPWSFPGWLGKGFSWPYVNLQLTAYYVVRWILGAKHYHDLDIDYIGIWNERPFDANYIKELRKMLDYQGLQRVRIIASDNLWEPISSSLLLDQELWKVVDVIGAHYPGTYTVWNAKMSGKKLWSSEDFSTINSNVGAGCWSRILNQNYINGNMTSTIAWNLVASYYEELPYGRSGLMTAQEPWSGHYVVASPIWVSAHTTQFTQPGWYYLKTVGHLEKGGSYVALTDGLGNLTIIIETMSHQHSMCIRPYLPYYNVSHQLATFTLKGSLREIQELQVWYTKLGTPQQRLHFKQLDTLWLLDGSGSFTLELEEDEIFTLTTLTTGRKGSYPPPPSSKPFPTNYKDDFNVEYPLFSEAPNFADQTGVFEYYMNNEDREHRFTLRQVLNQRPITWAADASSTISVIGDHHWTNMTVQCDVYIETPRSGGVFIAGRVNKGGILIRSATGVFFWIFANGSYRVTADLGGWITYASGHADVTAKRWYTLTLGIKGYFAFGMLNGTILWKNVRVKYPGHGWAAIGTHTFEFAQFDNFRVEAAR
notes: also called rmGALC; rmGalC
binding result: binds
